This is an account of results in PMC7542365 (mBio, 2020).

The target of this assay is T1, A/Serbia/NS-601/2014 H1N1 NA, soluble tetramer with His tag attached (Influenza A virus A/Serbia/NS-601/2014 …, strain).
T1 chain: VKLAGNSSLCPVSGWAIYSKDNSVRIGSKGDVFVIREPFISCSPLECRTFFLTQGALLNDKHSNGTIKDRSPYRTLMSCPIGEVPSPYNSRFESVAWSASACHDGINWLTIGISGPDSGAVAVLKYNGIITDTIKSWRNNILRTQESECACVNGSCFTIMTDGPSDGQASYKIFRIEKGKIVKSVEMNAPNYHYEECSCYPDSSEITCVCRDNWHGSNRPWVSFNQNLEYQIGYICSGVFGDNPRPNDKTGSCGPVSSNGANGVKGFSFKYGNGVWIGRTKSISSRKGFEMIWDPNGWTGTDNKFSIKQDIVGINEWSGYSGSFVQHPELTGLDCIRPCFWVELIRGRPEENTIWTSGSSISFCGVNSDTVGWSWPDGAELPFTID
As to the kind of experiment: SPR. The following applies: both partners purified.

B1: Z2B3-D102R Fab (Fab, V domains shown)
VH: EVQLVQSGAEVKKPGSSVKVSCKASGGPFSSYGFSWVRQAPGQGLEWMGGIIPVYGTTNYAQKFQGRVTITADESTSTAYMELSSLKSEDTAVYYCARDLQRTPMVDRIIGSYYYYNGLDVWGQGTTVTVSS
VL: QSVLTQPASVSGSPGQSITISCTGASSDVGDYNYVSWYQQHPGKAPKLMIYDVSNRPSGVSNRFSGSKSGDTASLTISGLQAEDEADYYCSSYTRSSSVVFGGGTKLTVL
The term Kd denotes the constant that tells how readily two partners part at equilibrium. A high value points to lower affinity. The molecule B1 came in with a Kd of 401 nM.
